Experiment: soluble on expression in E. coli; label from the status in PepcDB or PDB records

Row | Sequence | soluble on expression in E. coli
1 | MGHHHHHHSHMKKLICISLYEDLSMTTYDLSKVDNAELIGIVENASEGTLFVFTCDRPNGSSVIMCPGGGFLKTNLENEGIDFAEWFTKLGITYIVFKYRMPHGNPDVPEQDTRLALKVVREKFPEFCDKLGVMGASIGGYLATFSATLLPDDEKPDFQILMYPVVSVDDRLTHFPCRERMFGHSYSPDKMEQYSPIEHITSGTPAAFIVAAADDAVVSPLNGIMYAARLQKADIPISLHIYPAGGHGFGYNDSFVYKQEWLQELGEWLAKL | soluble
2 | MASQLTDAFARKFYYLRLSITDVCNFRCTYCLPDGYKPSGVTNKGFLTVDEIRRVTRAFARLGTEKVRLTGGEPSLRRDFTDIIAAVRENDAIRQIAVTTNGYRLERDVASWRDAGLTGINVSVDSLDARQFHAITGQDKFNQVMAGIDAAFEAGFEKVKVNTVLMRDVNHHQLDTFLNWIQHRPIQLRFIELMETGEGSELFRKHHISGQVLRDELLRRGWIHQLRQRSDGPAQVFCHPDYAGEIGLIMPYEKDFCATCNRLRVSSIGKLHLCLFGEGGVNLRDLLEDDTQQQALEARISAALREKKQTHFLHQNNTGITQNLSYIGGLEHHHHHH | not soluble
3 | MSIPITVKTVADLIIGEKGIICGFTDEETSLKLLEMGCLPGCEIELDRKAPLGDPICINVCGYTLSMRLEEASTILLSLEHHHHHH | not soluble
4 | MQINGKAPRNKDLEPHSFELWLNAAKTNLDKYEMALIITATLGLRRGEVMGLRNESIKISHDQINDADVAQISIDMQRNTNELNGGPLKTKSSYRTIWAFGKTVDHLKYAMITADNLRQRNNIQAEKHWLWLNNDGNPLHPTHLNRLMRRVSNRSGVEVYPHLLRHYFATQAIAANKPQIDVMHYLGHKNLQMTADYTRSTKAASLNVFNSIDKFLLEHHHHHH | soluble
5 | MGSDKIHHHHHHMRVASPETFASQSYRLLPFRFERVNDDRFLLINEVGEHCYLNCADLNNLVNGYLTTSGKTFQNLESKSFVYSENNNFALRAFSAKYRARKSFLFDGPALHIFVLTLRCENSCEYCQVTRRSPDAVKYDMPLSIAKQAVLRMFESPAENLTVEFQGGEPLLAYDVLKYIVELCIELNITEQKSLQFVVATSLQNINMEMLEFFHLHNVHISTSVDGPQWLHQLNRPNSCSNSYEKTMHGLEMARGVLGHDRIAGMTTITRSSLTAIKTIIDEYVRLGFHSIFLRPLNMYGFAVKKENKVGYSSEDFNKFYEQALKYIIEINQQGYRLDEVNAALALNNILTPQATGYVDMRSPCGDGTGVLVYNYDGKVYPSDESRMLVEMGDESLALGSVSESYQDLMSSSVLNTILHAGIAEALPGCSDCAYLPYCGANPIQNYSRYGDMIGHRTFSAFCAKQKFLYRYVFNLLQDKSNRTVFNSWLPL | not soluble
6 | MGSDKIHHHHHHMQITKRNVELRVDDSLMRVYVASPKPVGVYPGIVFYSDIYQLGSPIIRLANYLAGFGYVVAAPEIFHRLEPIGLVIEPDDLGRMRGNDNARRTAIAEYDADSRAVIDFLKAETTVNANKIGTVGFCIGGHLAFRAAFENEVKASACCYPTGIPSGKLGKGVADTIHRVKEIKGEMLLVLGTLDPHIPESDRQILIKAIEDAKVPHKVVLYEAEHTFMRDDGYRYDSAATTFAWAEIVEFLGRVFAD | not soluble
7 | MGSDKIHHHHHHMKKILVVSHGAALGGSPISGLNIGRHIDKNQFEVIYAFGEEREIFDIAKKEGFKVFFVPKRSYLTIWDYAKIICREKIDIVHLNTLTSYYKYPAMAAWLCRKKIVWFVRENPEEKRCVRLGKYINALADRIVTVSLDTAKKMFYANHAKLCTIYNGIDLKFKKIEGRERLCEELGLSAREKYILCVASLEERKGVKDLVRAFLSSLPKLQGYKLLIVGEDRTKEQRYFLELKELAKDSSEVIFYGKSQKIQQLLSLSELFVLPSYWEGMARVILEAMACGLPVVASDAGGNREQVMDGVNGFLFPPRDIQALSAALEKAILGGRTQLLGKNSRELLEKNFDIKETTKKIENLYKAL | not soluble
8 | MGSDKIHHHHHHMIKILLLIDYSSEFDRKLLRGLVQYSKENGPWLFYRLPSYYSGMYGEKGILKWAKEWKADAIIGQWNNDTVNLLKELNIPIVLQNYHHRSTTYSNLTGDYKGTGRMAAQFFAKRMFHNFAYFGINGVVWSDERCEGFRQEVKRIGGNFYCFESDKHEDEIRIEVSQWLQELPKPIALFCCDDSHALFISETCKISNIHIPEEISLLGVDNDDLICNISDPPISSIELEVERGGYSIGRLIHQQIKKEHEGTFNIVINPIRIELRQSTEKHNIKDPYILEVVKYIESHYNSDLTIESLLAQIPLSRRNFEVKFKNAMHTSIYQYILNCRVNHLADLLLTTDRSLADIATEAGFKDYNNISRIFKKFKGCSPLEYREKKITNR | not soluble
9 | AMADIGSMGDPLTWSKALKKLEKVTVQGSQKLTTGNCNWALSLVDLFHDTNFVKEKDWQLRDVIPLLEDVTQTLSGQEREAFERTWWAISAVKMGLQINNVVDGKASFQLLRAKYEKKTANKKQSEPSEEY | soluble
10 | QSQSNQATPSKVVSGEVNAASFAQFSNAFIDDLWQLSPTWALYSGKHVNDGYLEIPDEAGRVKTLAFVKAQQAKLKQFELKSLTSNETIDYHLIDNLLSSMAWDITRFKSWQWDPSSYNVAGGFAQIINENFAPLDDRLRSVLARMENIPAYYAAARGNISQPTLEHTELAVLQNQGAFSVFSDDLLKQVADSGLSDAEKALFKTRFDIASKAINEHISWLNAQVSQLKKEGARSFRIGEELYEQKFAFDIQAGMTAKQLYQKAMVDKDRVQGEMAKITDKLWPKYFTTPKPSDNKIAIRQLIDKLSTKHVKRDDFVSEVRKQIPELIEFVNQKNIVTLDPKKPLVVRETPEYMRGYAGASISAPGPYDKLGNTYYNVTPLDGMSNESAESYLREYNHWILQILNIHEAIPGHYTQLVYSNESPSLVKSLFGNGAMVEGWAVYTERMMLEEGYGNFEPEMWLMYYKWNLRVICNTILDYSIHVKGMTEEQAIALMMDEAFQQRAEAEGKWRRATLSQVQLTSYYSGYREIYDFREEYKQLKGKDFDLKAFHEKFLSYGSAPVKYIRQLMLE | soluble
11 | MGGSHHHHHHGMASALAQVAMSTLPVEDEESSESRMVVTFLMSALESMCKELAKSKAEVACIAVYETDVFVVGTERGRAFVNTRKDFQKDFVKYCVEEEEKAAEMHKMKSTTQANRMSVDAVEIETLRKTVEDYFCFCYGKALGKSTVVPVPYEKMLRDQSAVVVQGLPEGVAFKHPENYDLATLKWILENKAGISFIIKRPFLEPKKHVGGRVMVTDADRSILSPGGSCGPIKVKTEPTEDSGISLEMAAVTVKEESEDPDYYQYNIQGSHHSSEGNEGTEMEVPAEG | not soluble
12 | MGSDKIHHHHHHMITAEECRTYKEFVDLYQSYLYPLLGARLSRMYSPKNKVIIDMGTGPGYLSIQLAKRTNAHVHAVDINPAMHEIAQEEAKKSGVSSLISFDLEDVHHLSYADQYADFIVSYSCLHHWEDVVKGLKECYRVLAPGGKIVILDTFNPQGSHLEIMRKQIKEPEYFRFVREAFEESYSFEDIHQFVQDAGIPNYSLETFHFLPEDFIESLDELEDAPLWEQNDQSTDHEIESVTWMLTIEKEKEGAL | not soluble
13 | MSLRIAVVGATGRIGSKLTRTLLGAGHQVKALSRGGAALEALVEAGAEPFLGSFDTGAGALDTFFQDVEAAFLMVKTDWNNIEGHYPAVAQRFVDALRGSPVKLAVSLSAMGSDVDGKTGHFELFHHLDQRLNELNDIDMVHLRAAWFMENTLAWTASVAKYGRLAWFYEPDLKMPWVATDDIAGLAAKELTNPTGDHRVIRETGSEDLTMNELAAMIGREIGKPVEYRFIDRGRKEIENEYLARFGTPEHWLDDSRSADALNHGVVRFQGGDDVRPVLPTTMEAFLKTIWTPRYLEALASEEGHHHHHH | soluble
14 | MDNLQKYKPTDKMIDLISDNYSLLQVMSRFGLSLGFGDKTVKEVCELNGVDCRTFLIVVNFMSEGFSRMDGSSEDISIPALIDYLRQAHIYFLDFSLPAIRRKLIEAIDCSQDDVAFLILKFFDEYTREVRKHMDYEEKTVFKYVDALINGNAPRNYQISTFSKHHDQVGEKLTELKNIIIKYCPAKANENLLNAALFDIYACEAGLESHCKVEDYIFVPAILKLERRIRENEK | not soluble
15 | MITVFGLKSKLAPRREKLAEVIYNSLHLGLDIPKGKHAIRFLCLEKEDFYYPFDRSDDYTVIEINLMAGRMEGTKKRLIKMLFSELEYKLGIRAHDVEITIKEQPAHCWGFRGMTGDEARDLDYDIYV | soluble
16 | MRRSAAPSQLQGNSFKKPKFIPPGRSNPGLNEEITKLNPDIKLFEGVAINNTFLPSQNDLRICSLNLPSEESTREINNRDNCSGKYCFEAPTLATLDPPHTVHSAPKEVAVSKEQEEKSDSLVKYFSVVWCKPSKKKHKKWEGDAVLIVKGKSFILKNLEGKDIGRGIGYKFKELEKIEEGQTLMICGKEIEVMGVISPDDFSSGRCFQLGGGSTAISHSSQVARKCFSNPFKSVCKPSSKENRQNDFQNCKPRHDPYTPNSLVMPRPDKNHQWVFNKNCFPLVDVVIDPYLVYHLRPHQKEGIIFLYECVMGMRMNGRCGAILADEMGLGKTLQCISLIWTLQCQGPYGGKPVIKKTLIVTPGSLVNNWKKEFQKWLGSERIKIFTVDQDHKVEEFIKSIFYSVLIISYEMLLRSLDQIKNIKFDLLICDEGHRLKNSAIKTTTALISLSCEKRIILTGTPIQNDLQEFFALIDFVNPGILGSLSSYRKIYEEPIILSREPSASEEEKELGERRAAELTCLTGLFILRRTQEIINKYLPPKIENVVFCRPGALQIELYRKLLNSQVVRFCLQGLLENSPHLICIGALKKLCNHPCLLFNSIKEKECSSTCDKNEEKSLYKGLLSVFPADYNPLLFTEKESGKLQVLSKLLAVIHELRPTEKVVLVSNYTQTLNILQEVCKRHGYAYTRLDGQTPISQRQQIVDGFNSQHSSFFIFLLSSKAGGVGLNLIGGSHLILYDIDWNPATDIQAMSRVWRDGQKYPVHIYRLLTTGTIEEKIYQRQISKQGLCGAVVDLTKTSEHIQFSVEELKNLFTLHESSDCVTHDLLDCECTGEEVHTGDSLEKFIVSRDCQLGPHHQKSNSLKPLSMSQLKQWKHFSGDHLNLTDPFLERITENVSFIFQNITTQATGT | soluble
17 | MSLYTVLVADDKEVFRRKVKRMPYFQDHKEKFAIRYEAQNGLEALEILRSHDVDMVLTDIRMPFIDGIELLKHVNAENLCKCVILLSEFAEFNYAKAGILNGAFDYVLKPVDDEKIQETFDRAYNYLTTINAAVNAQTQRIETLARLMLAGDRMNALAYAKHIGAGLQAHGAITGERIVQANDTLAQLNKYILQKRPFLHYYLPFDELCCLDAKKTTPGKISDAFNACVSTVMDAIEPFCVQSTNELVGRTCQLVLEKLDSKVSLHGIADNLYVNPKYLGALFKKETGRSFVDYVTFARMERAKMLLRNPTLKVYEVAAQLGYDDVDYFSKVFKKLTAESPSIYREMRKEGHHHHHH | soluble
18 | MKASVRWVECPRDAWQGFSRFIPTEEKVAFLNELLEAGFAHLDLTSFVSPKWVPQMQDAEEVLKALPPPNGRTYLAIVANEKGLERALAAPNLTHVGYPFSLSETFQQRNTNRSIEASWPLVGAMVERTEGRLGLVVYLSMAFGNPYGDPWSVEAVLEALARLKEMGVREIALADTYGVAEPERIHEVLKAAVARFGPEGLGAHLHARPEGALAKVEAVLAAGVTWLEGALAGVGGCPFAGDELVGNLPTEVVLPHLEKRGLATGVDLSRLPLLAEEAARLKALYA | soluble
19 | MNEEILPILTVKDLNAGYLTNEKYIGIIHNINIELNRGKIVGITGLSGSGKTTLLKSILLETHIKSGEIIFNGKPIMPGDTKNYRRSVIYVPQNSLDSLDIIWPIEDQVKKILKQHNVVYDINKVSEIAKLIDLDISMLKLKSFEVSYGTRHKIVLLMSILMAKRDLVVLMDEPTLSQDAITAEGILNIIVKLAKDYGSSFIIVSSSPEPVFYASDFIYIMYGGWIVENGTPNDLSKWPKHPFTYEFINMLPAHKTRDRFPKFPMTEFSENGCPYSIYCKNKIKGCDSHINMFGEGHKYRCLNPVV | not soluble

— the DeepSol protein solubility set
